PMC7177239, “Transitional States in Ligand-Dependent Transformation of the Aryl Hydrocarbon Receptor into Its DNA-Binding Form” (International Journal of Molecular Sciences, 2020)
Substitutions are numbered along the chain they refer to.

Key:
[1] = biological target: heat shock protein 90 (rabbit (endogenous in reticulocyte lysate)) (UniProt P30946)
[2] = test system: AhRdPASB;ARNT; assay: EMSA; details: MEDG (25 mM MOPS pH 7.5, 1 mM EDTA, 1 mM DTT, 10% glycerol), 150 mM KCl (no added KCl for AhRdPASB and AhR/PASB-ARNT), AhR:ARNT:buffer 1:1:8, 10 nM TCDD or 1% …
[3] = test system: AhR F281A;ARNT; assay: EMSA; details: MEDG (25 mM MOPS pH 7.5, 1 mM EDTA, 1 mM DTT, 10% glycerol), 150 mM KCl (no added KCl for AhRdPASB and AhR/PASB-ARNT), AhR:ARNT:buffer 1:1:8, 10 nM TCDD or 1% …
[4] = test system: AhR A375V;ARNT; assay: EMSA; details: MEDG (25 mM MOPS pH 7.5, 1 mM EDTA, 1 mM DTT, 10% glycerol), 150 mM KCl (no added KCl for AhRdPASB and AhR/PASB-ARNT), AhR:ARNT:buffer 1:1:8, 10 nM TCDD or 1% …
[5] = test system: AhR/PASB-ARNT;ARNT; assay: EMSA; details: MEDG (25 mM MOPS pH 7.5, 1 mM EDTA, 1 mM DTT, 10% glycerol), 150 mM KCl (no added KCl for AhRdPASB and AhR/PASB-ARNT), AhR:ARNT:buffer 1:1:8, 10 nM TCDD or 1% …
[6] = test system: AhR R217A;ARNT; assay: EMSA; details: MEDG (25 mM MOPS pH 7.5, 1 mM EDTA, 1 mM DTT, 10% glycerol), 150 mM KCl (no added KCl for AhRdPASB and AhR/PASB-ARNT), AhR:ARNT:buffer 1:1:8, 10 nM TCDD or 1% …
[7] = test system: AhR D371A;ARNT; assay: EMSA; details: MEDG (25 mM MOPS pH 7.5, 1 mM EDTA, 1 mM DTT, 10% glycerol), 150 mM KCl (no added KCl for AhRdPASB and AhR/PASB-ARNT), AhR:ARNT:buffer 1:1:8, 10 nM TCDD or 1% …
[8] = test system: wtAhR;ARNT; assay: EMSA; details: MEDG (25 mM MOPS pH 7.5, 1 mM EDTA, 1 mM DTT, 10% glycerol), 150 mM KCl (no added KCl for AhRdPASB and AhR/PASB-ARNT), AhR:ARNT:buffer 1:1:8, 10 nM TCDD or 1% …
[9] = biological target: T1, aryl hydrocarbon receptor (AhR), wild type (Mus musculus, UniProt P30561); assay: [3H]TCDD saturation binding, hydroxyapatite assay
T1 construct: wtAhR (mβAhR/pcDNA3), synthesized in vitro in rabbit reticulocyte lysate
T1 sequence (P30561 10-848): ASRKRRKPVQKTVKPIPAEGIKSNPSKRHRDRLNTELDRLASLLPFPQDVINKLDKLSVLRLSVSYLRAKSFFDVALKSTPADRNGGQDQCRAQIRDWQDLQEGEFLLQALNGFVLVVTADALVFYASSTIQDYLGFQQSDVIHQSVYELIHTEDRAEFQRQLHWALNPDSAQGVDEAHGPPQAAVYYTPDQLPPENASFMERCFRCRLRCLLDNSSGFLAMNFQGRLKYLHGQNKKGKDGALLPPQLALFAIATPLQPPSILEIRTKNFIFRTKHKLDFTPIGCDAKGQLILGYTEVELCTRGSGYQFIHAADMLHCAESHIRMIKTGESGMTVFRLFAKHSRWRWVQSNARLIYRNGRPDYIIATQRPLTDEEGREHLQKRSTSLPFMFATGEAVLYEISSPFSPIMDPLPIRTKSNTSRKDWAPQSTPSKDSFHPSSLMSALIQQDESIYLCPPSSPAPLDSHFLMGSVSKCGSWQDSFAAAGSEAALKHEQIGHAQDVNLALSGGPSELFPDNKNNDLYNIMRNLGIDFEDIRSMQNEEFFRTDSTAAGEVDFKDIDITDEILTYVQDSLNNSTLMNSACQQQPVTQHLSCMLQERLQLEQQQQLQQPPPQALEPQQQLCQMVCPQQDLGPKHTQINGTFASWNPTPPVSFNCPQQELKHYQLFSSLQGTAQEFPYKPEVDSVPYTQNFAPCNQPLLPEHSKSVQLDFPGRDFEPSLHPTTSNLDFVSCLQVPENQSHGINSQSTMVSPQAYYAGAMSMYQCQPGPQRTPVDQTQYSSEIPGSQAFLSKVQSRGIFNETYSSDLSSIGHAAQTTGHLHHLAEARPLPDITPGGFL

[10] = biological target: T2, aryl hydrocarbon receptor (AhR) (Mus musculus, UniProt P30561, D371A); assay: [3H]TCDD saturation binding, hydroxyapatite assay
T2 construct: mutant of mβAhR/pcDNA3, synthesized in vitro in rabbit reticulocyte lysate
T2 sequence (P30561 10-848 D371A): T1 sequence (P30561 10-848) with D362A

Sequence of AhRdPASB (P30561 whole entry): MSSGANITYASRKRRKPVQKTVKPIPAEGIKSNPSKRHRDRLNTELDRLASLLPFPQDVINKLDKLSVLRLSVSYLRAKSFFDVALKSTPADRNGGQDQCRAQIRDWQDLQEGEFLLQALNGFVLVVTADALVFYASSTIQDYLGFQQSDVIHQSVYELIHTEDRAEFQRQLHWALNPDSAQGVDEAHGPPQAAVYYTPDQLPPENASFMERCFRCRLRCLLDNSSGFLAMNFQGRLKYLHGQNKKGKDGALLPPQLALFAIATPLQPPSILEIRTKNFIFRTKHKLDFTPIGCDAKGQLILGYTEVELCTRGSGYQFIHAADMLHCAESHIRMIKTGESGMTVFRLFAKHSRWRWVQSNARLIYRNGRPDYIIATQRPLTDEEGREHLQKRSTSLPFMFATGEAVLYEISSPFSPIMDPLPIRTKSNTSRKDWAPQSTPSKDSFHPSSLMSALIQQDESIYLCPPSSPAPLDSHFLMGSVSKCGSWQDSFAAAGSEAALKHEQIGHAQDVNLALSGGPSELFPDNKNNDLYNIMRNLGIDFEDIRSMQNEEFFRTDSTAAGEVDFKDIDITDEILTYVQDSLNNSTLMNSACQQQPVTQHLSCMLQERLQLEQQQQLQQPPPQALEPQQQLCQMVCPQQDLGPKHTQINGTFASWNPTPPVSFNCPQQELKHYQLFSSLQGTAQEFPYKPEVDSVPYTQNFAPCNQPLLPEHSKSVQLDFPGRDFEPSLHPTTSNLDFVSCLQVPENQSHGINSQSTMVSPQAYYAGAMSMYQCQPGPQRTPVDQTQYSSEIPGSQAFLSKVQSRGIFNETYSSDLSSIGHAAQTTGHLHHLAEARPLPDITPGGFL
Sequence of wild type aryl hydrocarbon receptor (mouse) (P30561 whole entry): as above

## AhR/PASB-ARNT
[1]
  percent inhibition by sodium molybdate of constitutive AhR transformation/DNA binding in vitro (gel retardation): 9.1%

## AhRdPASB (from UniProt P30561 1-848) (natural protein)
[1]
  percent inhibition by sodium molybdate of constitutive AhR transformation/DNA binding in vitro (gel retardation): 4.3%

## DRE3
[2]
  binding signal (% inhibition by molybdate): 4.3
[3]
  binding signal (% inhibition by molybdate): 5
[4]
  binding signal (% of wt DNA binding): 55
[5]
  binding signal (% inhibition by molybdate): 9.1
[6]
  binding signal (% inhibition by molybdate): 67.1
[7]
  binding signal (% inhibition by molybdate): 61.7
[8]
  binding signal (% DNA binding (reference)): 100
  binding signal (% inhibition by molybdate): 69.6

## AhR F281A (from UniProt P30561 1-848) (natural protein)
[1]
  percent inhibition by 20 mM sodium molybdate of constitutive AhR transformation/DNA binding in vitro (gel retardation): 5%

## Clc1cc2c(cc1Cl)Oc1cc(Cl)c(Cl)cc1O2 [TCDD, 2,3,7,8-tetrachlorodibenzo-p-dioxin]
[9]
  Kd: 4.6 ± 0.3 nM
[10]
  Kd: 5 ± 0.4 nM

## wild type aryl hydrocarbon receptor (mouse) (from UniProt P30561 1-848) (natural protein)
[1]
  percent inhibition by sodium molybdate (up to 20 mM) of TCDD-dependent AhR transformation/DNA binding in vitro (gel retardation): 69.6%
